Laboratory results reported in the supplement of paper PMC10567573.

B1: TMEM192 (parent)
chain: ILGKVILWILHLLLECYIQYHHSK
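Also: lentivirally expressed fusions sorted by FACS into six bins by GFP to DsRed ratio, PSI derived from sequencing read proportions per bin multiplied by bin number.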

Variants of: B1
Assay: protein stability index of a GFP-peptide fusion (GPS, HEK-293T) (PSI 1-6); higher = more stable
Conditions: c terminus: a fixed tail appended
ILGKVILWILHLLLECYIWYHHSK [Q19W] gave a protein stability index of 2.36. Work on ILGKVILWILHLLLECYIFYHHSK [Q19F] yielded a protein stability index of 2.49. In the case of ILGKVILWILHLLLECYIKYHHSK [Q19K], the protein stability index is reported as 2.25. In the case of ILGKVILWILHLLLECYICYHHSK [Q19C], the protein stability index is reported as 3.13. ILGKVILWILHLLLECYIVYHHSK [Q19V] showed a protein stability index of 3.16. ILGKVILWILHLLLECYIMYHHSK [Q19M] showed a protein stability index of 2.97. ILGKVILWILHLLLECYILYHHSK [Q19L] showed a protein stability index of 4.51. For ILGKVILWILHLLLECYIYYHHSK [Q19Y], the protein stability index was 3.49. ILGKVILWILHLLLECYIEYHHSK [Q19E] showed a protein stability index of 3.03. Variant ILGKVILWILHLLLECYIPYHHSK [Q19P] has a protein stability index of 2.26. ILGKVILWILSLLLECYIQYHHSK [H11S] gave a protein stability index of 2.22. In the case of ILGKVILWILRLLLECYIQYHHSK [H11R], the protein stability index is reported as 3.16. Variant ILGKVILWILYLLLECYIQYHHSK [H11Y] has a protein stability index of 2.56. ILGKVILWILTLLLECYIQYHHSK [H11T] showed a protein stability index of 2.63. ILGKVILWILCLLLECYIQYHHSK [H11C] showed a protein stability index of 3.27. In the case of ILGKVILWILPLLLECYIQYHHSK [H11P], the protein stability index is reported as 3.26. Variant ILGKVILWILALLLECYIQYHHSK [H11A] has a protein stability index of 2.76. ILGKVILWILWLLLECYIQYHHSK [H11W] gave a protein stability index of 2.94. ILGKVILWILQLLLECYIQYHHSK [H11Q] showed a protein stability index of 2.29. ILGKVILWILKLLLECYIQYHHSK [H11K] showed a protein stability index of 3.6. With ILGKVILWILILLLECYIQYHHSK [H11I] the protein stability index was 3.89. ILGKVILWILVLLLECYIQYHHSK [H11V] gave a protein stability index of 3.77. With ILGKVILWILMLLLECYIQYHHSK [H11M] the protein stability index was 4.49. In the case of ILGKVILWILGLLLECYIQYHHSK [H11G], the protein stability index is reported as 2.09. ILGKVILWILFLLLECYIQYHHSK [H11F] showed a protein stability index of 3.18. In the case of ILGKVILWILNLLLECYIQYHHSK [H11N], the protein stability index is reported as 2.91. ILGKVILWILHLLLMCYIQYHHSK [E15M] gave a protein stability index of 2.76. For ILGKVILWILHLLLLCYIQYHHSK [E15L], the protein stability index was 3.05. ILGKVILWILHLLLPCYIQYHHSK [E15P] gave a protein stability index of 3.23. With ILGKVILWILHLLLNCYIQYHHSK [E15N] the protein stability index was 3.35. ILGKVILWILHLLLQCYIQYHHSK [E15Q] gave a protein stability index of 3.19. ILGKVILWILHLLLKCYIQYHHSK [E15K] showed a protein stability index of 2.68. Work on ILGKVILWILHLLLGCYIQYHHSK [E15G] yielded a protein stability index of 2.81. Work on ILGKVILWILHLLLTCYIQYHHSK [E15T] yielded a protein stability index of 2.4. In the case of ILGKVILWILHLLLCCYIQYHHSK [E15C], the protein stability index is reported as 2.82. Work on ILGKVILWILHLLLICYIQYHHSK [E15I] yielded a protein stability index of 3.52. With ILGKVILWILHLLLFCYIQYHHSK [E15F] the protein stability index was 2.44. ILGKVILWILHLLLHCYIQYHHSK [E15H] gave a protein stability index of 3.19. ILGKVILWILHLLLYCYIQYHHSK [E15Y] showed a protein stability index of 2.69. Work on ILGKVILWILHLLLDCYIQYHHSK [E15D] yielded a protein stability index of 2.1. Variant ILGKVILWILHLLLSCYIQYHHSK [E15S] has a protein stability index of 2.14. For ILGKVILWILHLLLACYIQYHHSK [E15A], the protein stability index was 3.03. Work on ILGKVILWILHLLLVCYIQYHHSK [E15V] yielded a protein stability index of 3.17. ILGKVILWILHLLLEMYIQYHHSK [C16M] gave a protein stability index of 3.3. Variant ILGKVILWILHLLLEWYIQYHHSK [C16W] has a protein stability index of 2.31. Work on ILGKVILWILHLLLETYIQYHHSK [C16T] yielded a protein stability index of 3.84. Variant ILGKVILWILHLLLESYIQYHHSK [C16S] has a protein stability index of 5.42. Variant ILGKVILWILHLLLEPYIQYHHSK [C16P] has a protein stability index of 2.88. For ILGKVILWILHLLLEFYIQYHHSK [C16F], the protein stability index was 2.6. ILGKVILWILHLLLEKYIQYHHSK [C16K] showed a protein stability index of 3.66. For ILGKVILWILHLLLEAYIQYHHSK [C16A], the protein stability index was 3.38. ILGKVILWILHLLLENYIQYHHSK [C16N] gave a protein stability index of 3.32. Variant ILGKVILWILHLLLEQYIQYHHSK [C16Q] has a protein stability index of 2.86. With ILGKVILWILHLLLEEYIQYHHSK [C16E] the protein stability index was 2.48. With ILGKVILWILHLLLEIYIQYHHSK [C16I] the protein stability index was 2.95. Work on ILGKVILWILHLLLEDYIQYHHSK [C16D] yielded a protein stability index of 2.6. Work on ILGKVILWILHLLLEYYIQYHHSK [C16Y] yielded a protein stability index of 3.21. For ILGKVILWILHLLLEGYIQYHHSK [C16G], the protein stability index was 3.5. For ILGKVILWILHLLLECQIQYHHSK [Y17Q], the protein stability index was 2.67. Work on ILGKVILWILHLLLECLIQYHHSK [Y17L] yielded a protein stability index of 2.59. ILGKVILWILHLLLECGIQYHHSK [Y17G] gave a protein stability index of 3.49. With ILGKVILWILHLLLECSIQYHHSK [Y17S] the protein stability index was 3.71. With ILGKVILWILHLLLECAIQYHHSK [Y17A] the protein stability index was 2.48. ILGKVILWILHLLLECFIQYHHSK [Y17F] gave a protein stability index of 3.16. ILGKVILWILHLLLECWIQYHHSK [Y17W] gave a protein stability index of 3.9. For ILGKVILWILHLLLECTIQYHHSK [Y17T], the protein stability index was 1.81. In the case of ILGKVILWILHLLLECEIQYHHSK [Y17E], the protein stability index is reported as 3.46. Variant ILGKVILWILHLLLECIIQYHHSK [Y17I] has a protein stability index of 3.59. For ILGKVILWILHLLLECRIQYHHSK [Y17R], the protein stability index was 2.2. ILGKVILWILHLLLECKIQYHHSK [Y17K] showed a protein stability index of 2.99. Variant ILGKVILWILHLLLECDIQYHHSK [Y17D] has a protein stability index of 2.2. Work on ILGKVILWILHLLLECCIQYHHSK [Y17C] yielded a protein stability index of 2.8. ILGKVILWILHLLLECMIQYHHSK [Y17M] gave a protein stability index of 2.85. ILGKVILWILHLLLECNIQYHHSK [Y17N] showed a protein stability index of 3.47. With ILGKVILWILHLLLECHIQYHHSK [Y17H] the protein stability index was 3.22. Variant ILGKVILWILHLLLECPIQYHHSK [Y17P] has a protein stability index of 3.26. ILGKVILWILHLWLECYIQYHHSK [L13W] showed a protein stability index of 2.21. For ILGKVILWILHLDLECYIQYHHSK [L13D], the protein stability index was 2.47. Work on ILGKVILWILHLVLECYIQYHHSK [L13V] yielded a protein stability index of 2.8. ILGKVILWILHLRLECYIQYHHSK [L13R] showed a protein stability index of 2.37. ILGKVILWILHLYLECYIQYHHSK [L13Y] gave a protein stability index of 2.97. ILGKVILWILHLQLECYIQYHHSK [L13Q] gave a protein stability index of 2.11. Work on ILGKVILWILHLALECYIQYHHSK [L13A] yielded a protein stability index of 3.26. Variant ILGKVILWILHLMLECYIQYHHSK [L13M] has a protein stability index of 3.1. In the case of ILGKVILWILHLHLECYIQYHHSK [L13H], the protein stability index is reported as 2.83. With ILGKVILWILHLNLECYIQYHHSK [L13N] the protein stability index was 3.18. With ILGKVILWILHLTLECYIQYHHSK [L13T] the protein stability index was 2.88. For ILGKVILWILHLCLECYIQYHHSK [L13C], the protein stability index was 2.76. For ILGKVILWILHLSLECYIQYHHSK [L13S], the protein stability index was 2.98. Variant ILGKVILWILHLILECYIQYHHSK [L13I] has a protein stability index of 2.04. Work on ILGKVILWILHLFLECYIQYHHSK [L13F] yielded a protein stability index of 2.5. With ILGKVILWILHLPLECYIQYHHSK [L13P] the protein stability index was 3.39. ILGKVILWILHLKLECYIQYHHSK [L13K] gave a protein stability index of 2.9. Variant ILGKVILWILHLGLECYIQYHHSK [L13G] has a protein stability index of 2.25.
